From patent US20260242735A1 (UNIVERSIT T BASEL, published 2026)
Each block holds one binder with its values, some of them ahead of it.

What was measured:
human wild-type CD33 [1] = biological target: T1, human wild-type CD33 (human, UniProt P20138 18-364); assay: flow cytometry, Fab at 1.00 ug/ml on HEK293-T cells expressing CD33 against vector alone
T1 construct: also called SIGLEC3; P67
Method: Serial dilutions of each Fab were tested for immunoreactivity against cells expressing wild-type CD33 or vector alone. The optimal screening concentration for the Fabs was determined based on the raw signal values and signal-to-background calculations. Each point represents the mean of four replicates.

human wild-type CD33 [2] = biological target: T1, human wild-type CD33; assay: flow cytometry, IgG at 0.25 ug/ml on HEK293-T cells expressing CD33 against vector alone
Method: Binding of the antibodies to the transfected cells and the optimal assay conditions were evaluated in 384-well format. Detection of cellular expression was measured via high-throughput flow cytometry. Serial dilutions of each antibody were tested for immunoreactivity against cells expressing CD33 or vector alone. The optimal screening concentration for each antibody was determined based on the raw signal values and signal-to-background calculations. Each point represents the mean of four replicates.

human CD33 P132K = human CD33 P132K (human, UniProt P20138 18-364); assay: flow cytometry, HEK293-T, IgG;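 note: CD33 point mutants transiently expressed, antibody binding measured by fluorescence in duplicate, background subtracted and scaled to binding on wild-type CD33 as 100%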
Method: (§1) An alanine scan on human CD33 was performed to the determine the residues on CD33 that are involved in binding to the antibodies investigated. […] Briefly, a mutation library of CD33 was created by high-throughput, site-directed mutagenesis. Each residue was individually mutated to alanine, with alanine codons mutated to serine. The mutant library was arrayed in 384-well microplates and transiently transfected into HEK293-T. Following transfection, cells were incubated with the indicated antibodies (IgG or Fab) at concentrations pre-determined using an independent immunofluorescence titration curve on wild type CD33. […] Binding of each antibody to each mutant clone was determined in duplicates. For each point, background fluorescence was subtracted from the raw data, which were then normalized to antibody reactivity with wild type CD33.
(§2) Antibodies were screened for binding to the human CD33 variants in IgG format. […] For each mutation, background fluorescence was subtracted from the raw data, which were then normalized to antibody reactivity with wild-type CD33.

human CD33 P132D = human CD33 P132D (human, UniProt P20138 18-364); assay: flow cytometry, HEK293-T, IgG;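 note: CD33 point mutants transiently expressed, antibody binding measured by fluorescence in duplicate, background subtracted and scaled to binding on wild-type CD33 as 100%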
Method: as §1, §2

human CD33 S131T = human CD33 S131T (human, UniProt P20138 18-364); assay: flow cytometry, HEK293-T, IgG;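 note: CD33 point mutants transiently expressed, antibody binding measured by fluorescence in duplicate, background subtracted and scaled to binding on wild-type CD33 as 100%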
Method: as §1, §2

human CD33 S131I = human CD33 S131I (human, UniProt P20138 18-364); assay: flow cytometry, HEK293-T, IgG;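 note: CD33 point mutants transiently expressed, antibody binding measured by fluorescence in duplicate, background subtracted and scaled to binding on wild-type CD33 as 100%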
Method: as §1, §2

human CD33 S131W = human CD33 S131W (human, UniProt P20138 18-364); assay: flow cytometry, HEK293-T, IgG
Method: as §1, §2

human CD33 S131F = human CD33 S131F (human, UniProt P20138 18-364); assay: flow cytometry, HEK293-T, IgG
Method: as §1, §2

human CD33 S131H = human CD33 S131H (human, UniProt P20138 18-364); assay: flow cytometry, HEK293-T, IgG
Method: as §1, §2

human CD33 S131Q = human CD33 S131Q (human, UniProt P20138 18-364); assay: flow cytometry, HEK293-T, IgG
Method: as §1, §2

human CD33 L134M = human CD33 L134M (human, UniProt P20138 18-364); assay: flow cytometry, HEK293-T, IgG
Method: as §1, §2

human CD33 P132S = human CD33 P132S (human, UniProt P20138 18-364); assay: flow cytometry, HEK293-T, IgG
Method: as §1, §2

human CD33 L134R = human CD33 L134R (human, UniProt P20138 18-364); assay: flow cytometry, HEK293-T, IgG
Method: as §1, §2

human CD33 L134T = human CD33 L134T (human, UniProt P20138 18-364); assay: flow cytometry, HEK293-T, IgG
Method: as §1, §2

human CD33 L134F = human CD33 L134F (human, UniProt P20138 18-364); assay: flow cytometry, HEK293-T, IgG
Method: as §1, §2

human CD33 P132Y = human CD33 P132Y (human, UniProt P20138 18-364); assay: flow cytometry, HEK293-T, IgG
Method: as §1, §2

human CD33 L134Q = human CD33 L134Q (human, UniProt P20138 18-364); assay: flow cytometry, HEK293-T, IgG
Method: as §1, §2

human CD33 P132Q = human CD33 P132Q (human, UniProt P20138 18-364); assay: flow cytometry, HEK293-T, IgG
Method: as §1, §2

human CD33 P132H = human CD33 P132H (human, UniProt P20138 18-364); assay: flow cytometry, HEK293-T, IgG
Method: as §1, §2

human CD33 S131K = human CD33 S131K (human, UniProt P20138 18-364); assay: flow cytometry, HEK293-T, IgG
Method: as §1, §2

human CD33 P132V = human CD33 P132V (human, UniProt P20138 18-364); assay: flow cytometry, HEK293-T, IgG
Method: as §1, §2

human CD33 S131D = human CD33 S131D (human, UniProt P20138 18-364); assay: flow cytometry, HEK293-T, IgG
Method: as §1, §2

human CD33 S131Y = human CD33 S131Y (human, UniProt P20138 18-364); assay: flow cytometry, HEK293-T, IgG
Method: as §1, §2

human CD33 S131M = human CD33 S131M (human, UniProt P20138 18-364); assay: flow cytometry, HEK293-T, IgG
Method: as §1, §2

human CD33 P132F = human CD33 P132F (human, UniProt P20138 18-364); assay: flow cytometry, HEK293-T, IgG
Method: as §1, §2

human CD33 P132N = human CD33 P132N (human, UniProt P20138 18-364); assay: flow cytometry, HEK293-T, IgG
Method: as §1, §2

human CD33 S131N = human CD33 S131N (human, UniProt P20138 18-364); assay: flow cytometry, HEK293-T, IgG
Method: as §1, §2

human CD33 P132L = human CD33 P132L (human, UniProt P20138 18-364); assay: flow cytometry, HEK293-T, IgG
Method: as §1, §2

human CD33 L134I = human CD33 L134I (human, UniProt P20138 18-364); assay: flow cytometry, HEK293-T, IgG
Method: as §1, §2

human CD33 P132T = human CD33 P132T (human, UniProt P20138 18-364); assay: flow cytometry, HEK293-T, IgG
Chain of human CD33 P132T (P20138 18-364 P132T limits assumed): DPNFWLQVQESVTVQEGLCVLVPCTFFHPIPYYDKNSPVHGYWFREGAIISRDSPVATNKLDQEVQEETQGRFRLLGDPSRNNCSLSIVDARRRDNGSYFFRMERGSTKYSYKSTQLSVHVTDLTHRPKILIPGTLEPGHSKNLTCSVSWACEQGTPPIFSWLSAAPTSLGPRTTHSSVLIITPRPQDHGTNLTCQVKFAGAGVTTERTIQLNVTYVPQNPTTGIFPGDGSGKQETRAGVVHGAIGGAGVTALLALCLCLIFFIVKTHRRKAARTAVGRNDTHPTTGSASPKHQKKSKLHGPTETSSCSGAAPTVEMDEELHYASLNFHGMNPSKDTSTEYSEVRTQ
Method: as §1, §2

T1 sequence (P20138 18-364 limits assumed): as the sequence (P20138 18-364 P132T limits assumed) above, with T115P counted along it
Chain of human CD33 P132L (P20138 18-364 P132L limits assumed): as the sequence (P20138 18-364 P132T limits assumed) above, with T115L counted along it
Chain of human CD33 S131Q (P20138 18-364 S131Q limits assumed): as the sequence (P20138 18-364 P132T limits assumed) above, with S114Q, T115P counted along it
Chain of human CD33 P132K (P20138 18-364 P132K limits assumed): as the sequence (P20138 18-364 P132T limits assumed) above, with T115K counted along it
Chain of human CD33 S131K (P20138 18-364 S131K limits assumed): as the sequence (P20138 18-364 P132T limits assumed) above, with S114K, T115P counted along it
Chain of human CD33 L134T (P20138 18-364 L134T limits assumed): as the sequence (P20138 18-364 P132T limits assumed) above, with T115P, L117T counted along it
Chain of human CD33 L134M (P20138 18-364 L134M limits assumed): as the sequence (P20138 18-364 P132T limits assumed) above, with T115P, L117M counted along it
Chain of human CD33 S131I (P20138 18-364 S131I limits assumed): as the sequence (P20138 18-364 P132T limits assumed) above, with S114I, T115P counted along it
Chain of human CD33 L134I (P20138 18-364 L134I limits assumed): as the sequence (P20138 18-364 P132T limits assumed) above, with T115P, L117I counted along it
Chain of human CD33 S131F (P20138 18-364 S131F limits assumed): as the sequence (P20138 18-364 P132T limits assumed) above, with S114F, T115P counted along it
Chain of human CD33 P132Q (P20138 18-364 P132Q limits assumed): as the sequence (P20138 18-364 P132T limits assumed) above, with T115Q counted along it
Chain of human CD33 L134R (P20138 18-364 L134R limits assumed): as the sequence (P20138 18-364 P132T limits assumed) above, with T115P, L117R counted along it
Chain of human CD33 P132V (P20138 18-364 P132V limits assumed): as the sequence (P20138 18-364 P132T limits assumed) above, with T115V counted along it
Chain of human CD33 P132H (P20138 18-364 P132H limits assumed): as the sequence (P20138 18-364 P132T limits assumed) above, with T115H counted along it
Chain of human CD33 P132S (P20138 18-364 P132S limits assumed): as the sequence (P20138 18-364 P132T limits assumed) above, with T115S counted along it
Chain of human CD33 S131W (P20138 18-364 S131W limits assumed): as the sequence (P20138 18-364 P132T limits assumed) above, with S114W, T115P counted along it
Chain of human CD33 S131M (P20138 18-364 S131M limits assumed): as the sequence (P20138 18-364 P132T limits assumed) above, with S114M, T115P counted along it
Chain of human CD33 P132N (P20138 18-364 P132N limits assumed): as the sequence (P20138 18-364 P132T limits assumed) above, with T115N counted along it
Chain of human CD33 S131N (P20138 18-364 S131N limits assumed): as the sequence (P20138 18-364 P132T limits assumed) above, with S114N, T115P counted along it
Chain of human CD33 S131D (P20138 18-364 S131D limits assumed): as the sequence (P20138 18-364 P132T limits assumed) above, with S114D, T115P counted along it
Chain of human CD33 P132Y (P20138 18-364 P132Y limits assumed): as the sequence (P20138 18-364 P132T limits assumed) above, with T115Y counted along it
Chain of human CD33 S131T (P20138 18-364 S131T limits assumed): as the sequence (P20138 18-364 P132T limits assumed) above, with S114T, T115P counted along it
Chain of human CD33 S131H (P20138 18-364 S131H limits assumed): as the sequence (P20138 18-364 P132T limits assumed) above, with S114H, T115P counted along it
Chain of human CD33 L134Q (P20138 18-364 L134Q limits assumed): as the sequence (P20138 18-364 P132T limits assumed) above, with T115P, L117Q counted along it
Chain of human CD33 S131Y (P20138 18-364 S131Y limits assumed): as the sequence (P20138 18-364 P132T limits assumed) above, with S114Y, T115P counted along it
Chain of human CD33 P132D (P20138 18-364 P132D limits assumed): as the sequence (P20138 18-364 P132T limits assumed) above, with T115D counted along it
Chain of human CD33 L134F (P20138 18-364 L134F limits assumed): as the sequence (P20138 18-364 P132T limits assumed) above, with T115P, L117F counted along it
Chain of human CD33 P132F (P20138 18-364 P132F limits assumed): as the sequence (P20138 18-364 P132T limits assumed) above, with T115F counted along it

Signal:Background (human wild-type CD33 [1]): 7 signal:background ratio
B1: Refmab #2 Fab fragment (Fab, V domains shown)
VH: QVQLVQSGAEVKKPGSSVKVSCKASGGTFSDYAISWVRQAPGQGLEWMGRIIPILGVADYAQKFQGRVTITADKSTRTAYMELSSLRSEDTAVYYCARNWADAFDIWGQGTMVTVSS
VL: DIQLTQSPSSLSASVGDRVTITCRASQGISSVLAWYQQKPGKAPKLLIYDASSLESGVPSRFSGSGSGTDFTLTISSLQPEDFATYYCQQFDSSITFGQGTKLEIK

Signal:Background (human wild-type CD33 [2]): 38 signal:background ratio
B2: Refmab #4 (antibody, human IgG1, V domains shown)
VH: QVQLVQSGAEVKKPGESVKVSCKASGYTFTNYGMNWVKQAPGQGLEWMGWINTYTGEPTYADKFQGRVTMTTDTSTSTAYMEIRNLGGDDTAVYYCARWSWSDGYYVYFDYWGQGTSVTVSS
VL: DIVMTQSPDSLTVSLGERTTINCKSSQSVLDSSTNKNSLAWYQQKPGQPPKLLLSWASTRESGIPDRFSGSGSGTDFTLTIDSPQPEDSATYYCQQSAHFPITFGQGTRLEIK
notes: Full-length MAb format, human IgG1 Fc silent (PG-LALA)

Mean % WT Binding (human CD33 P132K): 102 % WT binding
Mean % WT Binding (human CD33 P132D): 99.6 % WT binding
Mean % WT Binding (human CD33 S131T): 102 % WT binding
Mean % WT Binding (human CD33 S131I): 99.6 % WT binding
Mean % WT Binding (human CD33 S131W): 87.5 % WT binding
Mean % WT Binding (human CD33 S131F): 91.8 % WT binding
Mean % WT Binding (human CD33 S131H): 103 % WT binding
Mean % WT Binding (human CD33 S131Q): 97.3 % WT binding
Mean % WT Binding (human CD33 L134M): 99 % WT binding
Mean % WT Binding (human CD33 P132S): 102 % WT binding
Mean % WT Binding (human CD33 L134R): 2.4 % WT binding
Mean % WT Binding (human CD33 L134T): 90.3 % WT binding
Mean % WT Binding (human CD33 L134F): 90.6 % WT binding
Mean % WT Binding (human CD33 P132Y): 78.6 % WT binding
Mean % WT Binding (human CD33 L134Q): 86.8 % WT binding
Mean % WT Binding (human CD33 P132Q): 86.9 % WT binding
Mean % WT Binding (human CD33 P132H): 92.7 % WT binding
Mean % WT Binding (human CD33 S131K): 100 % WT binding
Mean % WT Binding (human CD33 P132V): 94.7 % WT binding
Mean % WT Binding (human CD33 S131D): 97.5 % WT binding
Mean % WT Binding (human CD33 S131Y): 85.7 % WT binding
Mean % WT Binding (human CD33 S131M): 97.6 % WT binding
Mean % WT Binding (human CD33 P132F): 71.3 % WT binding
Mean % WT Binding (human CD33 P132N): 100 % WT binding
Mean % WT Binding (human CD33 S131N): 105 % WT binding
Mean % WT Binding (human CD33 P132L): 96.7 % WT binding
Mean % WT Binding (human CD33 L134I): 94.4 % WT binding
Mean % WT Binding (human CD33 P132T): 99.8 % WT binding
B3: Refmab #4 (antibody, human IgG1, V domains shown)
VH: QVQLVQSGAEVKKPGESVKVSCKASGYTFTNYGMNWVKQAPGQGLEWMGWINTYTGEPTYADKFQGRVTMTTDTSTSTAYMEIRNLGGDDTAVYYCARWSWSDGYYVYFDYWGQGTSVTVSS
VL: DIVMTQSPDSLTVSLGERTTINCKSSQSVLDSSTNKNSLAWYQQKPGQPPKLLLSWASTRESGIPDRFSGSGSGTDFTLTIDSPQPEDSATYYCQQSAHFPITFGQGTRLEIK
notes: tested in IgG format
